Experimental data reported in the supplement of paper PMC9112550, “Optimization of the antimicrobial peptide Bac7 by deep mutational scanning” (BMC Biology, 2022).

test system: Escherichia coli TOP10; test: shrunken log2 fold change of peptide-encoding DNA abundance (4.5 h post-induction vs induction); higher = less antimicrobial activity (less host growth inhibition); details: time post-induction: 4.5 h; library: site-saturation at positions 5, 18, 19, 20
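Further: peptides expressed intracellularly from a pBAD plasmid library in pooled LB shake-flask culture, induced with 0.3% L-arabinose, DNA abundance read by NGS, three biological replicates, DESeq2 with apeglm shrinkage.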

Sequence | shrunken log2 fold change
RRIRVRPPRLPRPRPRPGQQPRP | 0.026
RRIRVRPPRLPRPRPRPGRDPRP | 0.175
RRIRVRPPRLPRPRPRPGRMPRP | 0.172
RRIRVRPPRLPRPRPRPGSAPRP | 0.179
RRIRVRPPRLPRPRPRPGSMPRP | -0.00131
RRIRVRPPRLPRPRPRPGSPPRP | 0.187
RRIRVRPPRLPRPRPRPGSVPRP | -0.269
RRIRVRPPRLPRPRPRPGTQPRP | -0.183
RRIRVRPPRLPRPRPRPGVGPRP | 0.275
RRIRVRPPRLPRPRPRPGWGPRP | 0.621
RRIRVRPPRLPRPRPRPGWMPRP | 0.159
RRIRVRPPRLPRPRPRPGYYPRP | -0.248
RRIRVRPPRLPRPRPRPHAEPRP | 0.0163
RRIRVRPPRLPRPRPRPHAFPRP | 0.0978
RRIRVRPPRLPRPRPRPHCDPRP | -0.401
RRIRVRPPRLPRPRPRPHCWPRP | 0.0268
RRIRVRPPRLPRPRPRPHCYPRP | -0.234
RRIRVRPPRLPRPRPRPHDGPRP | 0.0377
RRIRVRPPRLPRPRPRPHEMPRP | -0.058
RRIRVRPPRLPRPRPRPHENPRP | -0.38
RRIRVRPPRLPRPRPRPHFGPRP | -0.0294
RRIRVRPPRLPRPRPRPHFYPRP | -0.173
RRIRVRPPRLPRPRPRPHKIPRP | -0.53
RRIRVRPPRLPRPRPRPHKSPRP | 0.0325
RRIRVRPPRLPRPRPRPHLIPRP | -0.352

Sequence | shrunken log2 fold change
RRIRVRPPRLPRPRPRPHMTPRP | -0.277
RRIRVRPPRLPRPRPRPHMWPRP | -0.49
RRIRVRPPRLPRPRPRPHPKPRP | 0.0188
RRIRVRPPRLPRPRPRPHPLPRP | -0.435
RRIRVRPPRLPRPRPRPHQLPRP | -0.243
RRIRVRPPRLPRPRPRPHRHPRP | -0.357
RRIRVRPPRLPRPRPRPHSAPRP | -0.119
RRIRVRPPRLPRPRPRPHTLPRP | -0.571
RRIRVRPPRLPRPRPRPHTMPRP | -0.252
RRIRVRPPRLPRPRPRPHVYPRP | -0.13
RRIRVRPPRLPRPRPRPHYQPRP | -0.213
RRIRVRPPRLPRPRPRPIADPRP | 0.0367
RRIRVRPPRLPRPRPRPIATPRP | 0.141
RRIRVRPPRLPRPRPRPICYPRP | 0.19
RRIRVRPPRLPRPRPRPIEFPRP | 0.0379
RRIRVRPPRLPRPRPRPIEQPRP | -0.14
RRIRVRPPRLPRPRPRPIERPRP | 0.0557
RRIRVRPPRLPRPRPRPIFHPRP | -0.0258
RRIRVRPPRLPRPRPRPIFIPRP | -0.328
RRIRVRPPRLPRPRPRPIGKPRP | -0.129
RRIRVRPPRLPRPRPRPIGQPRP | 0.0922
RRIRVRPPRLPRPRPRPIGTPRP | -0.0334
RRIRVRPPRLPRPRPRPIHFPRP | -0.0962
RRIRVRPPRLPRPRPRPIHTPRP | -0.305
RRIRVRPPRLPRPRPRPIINPRP | -0.644

Sequence | shrunken log2 fold change
RRIRVRPPRLPRPRPRPIKAPRP | 0.0466
RRIRVRPPRLPRPRPRPIKLPRP | -0.486
RRIRVRPPRLPRPRPRPILTPRP | -0.443
RRIRVRPPRLPRPRPRPIMFPRP | -0.0691
RRIRVRPPRLPRPRPRPIMIPRP | -1.08
RRIRVRPPRLPRPRPRPINAPRP | -0.174
RRIRVRPPRLPRPRPRPINEPRP | -0.3
RRIRVRPPRLPRPRPRPINWPRP | -0.147
RRIRVRPPRLPRPRPRPIPQPRP | 0.485
RRIRVRPPRLPRPRPRPIPSPRP | -0.165
RRIRVRPPRLPRPRPRPIPVPRP | -0.363
RRIRVRPPRLPRPRPRPIRGPRP | 0.0551
RRIRVRPPRLPRPRPRPIRRPRP | 0.0517
RRIRVRPPRLPRPRPRPIRSPRP | -0.125
RRIRVRPPRLPRPRPRPISCPRP | 0.0771
RRIRVRPPRLPRPRPRPISMPRP | 0.0223
RRIRVRPPRLPRPRPRPIVYPRP | -0.0876
RRIRVRPPRLPRPRPRPIYFPRP | -0.23
RRIRVRPPRLPRPRPRPIYIPRP | -0.755
RRIRVRPPRLPRPRPRPKDKPRP | -0.13
RRIRVRPPRLPRPRPRPKDTPRP | -0.038
RRIRVRPPRLPRPRPRPKDVPRP | 0.00902
RRIRVRPPRLPRPRPRPKEEPRP | 0.00911
RRIRVRPPRLPRPRPRPKEWPRP | 0.146
RRIRVRPPRLPRPRPRPKFLPRP | -0.00678
